In patent US20240067738A1 (ELANCO US, published 2024):
Where a chain is given by its changes, count along the chain named.

Legend:
[1] = target: T1, canine IL4R (Examples 16, 18 and 19; construct not stated) (canine, biotinylated; sites not stated); experiment: method not stated
T1 construct: also called Biotinylated canine IL4R; canine IL4R extracellular domains
T1 chain: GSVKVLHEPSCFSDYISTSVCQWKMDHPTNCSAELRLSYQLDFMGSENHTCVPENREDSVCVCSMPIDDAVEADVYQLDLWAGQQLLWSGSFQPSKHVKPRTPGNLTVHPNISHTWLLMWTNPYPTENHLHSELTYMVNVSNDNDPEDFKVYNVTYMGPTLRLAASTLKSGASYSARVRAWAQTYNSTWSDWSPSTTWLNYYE

[2] = target: T2, Canine IL4R-ECD_C-His6 (processed) (canine, biotinylated through amine chemistry; sites not stated); experiment: BLI (Octet), biotinylated IL4R-ECD_C-His6 on streptavidin tips, 1:1 fit
T2 construct: Whole construct (ECD, linker, His6) is one entry; Captured biotinylated on streptavidin tips or wells
T2 chain: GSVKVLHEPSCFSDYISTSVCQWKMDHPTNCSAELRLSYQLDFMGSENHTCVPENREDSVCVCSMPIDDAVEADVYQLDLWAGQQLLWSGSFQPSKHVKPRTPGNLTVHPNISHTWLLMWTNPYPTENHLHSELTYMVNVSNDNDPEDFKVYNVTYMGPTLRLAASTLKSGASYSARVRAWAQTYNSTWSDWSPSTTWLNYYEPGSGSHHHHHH
Experimental: The binding analysis was performed using an Octet Biosensor as follows. Briefly, canine IL4R-ECD_C-His6 (SEQ ID NO: 107) was biotinylated through amine chemistry. The free unreacted biotin was removed by extensive dialysis. Biotinylated canine IL4R-ECD_C-His6 was captured on streptavidin sensor tips. The association of either Clone B or I antibody and canine IL4R-ECD_C-His6 (25 μg/mL) was monitored for 600 seconds. Dissociation was monitored for 600 seconds. A buffer only blank curve was subtracted to correct for any drift. The data were fit to a 1:1 binding model using ForteBio™ data analysis software to determine the kₒₙ, koff, and the Kd. The buffer for dilutions and all binding steps was 20 mM phosphate, 150 mM NaCl, pH 7.2.

[3] = target: T3, Canine IL4R-ECD_C-HuFc_His6 (processed) (canine); experiment: BLI (Octet), IL4R-ECD_C-HuFc_His6 on anti-human Fc tips
T3 construct: Whole construct (ECD, linker, human Fc, His6) is one entry
Experimental: An alternative binding assay was performed also using an Octet Biosensor. Canine IL4R-ECD_C-HuFc_His6 (SEQ ID NO: 109) was captured on anti-human Fc-bound sensor tips. The association of either Clone B or I antibody and canine IL4R-ECD_C-HuFc_His6 was monitored for 600 seconds. Dissociation was monitored for 600 seconds. The buffer for dilutions and all binding steps was 20 mM phosphate, 150 mM NaCl, pH 7.2. […] In addition, amine conjugation may affect the affinity of canine IL4R-ECD_C-His6 to interact with Clone B and I antibodies.

[4] = target: Equine IL4R-ECD_C-HuFc_His6 (processed) (equine); experiment: Western blot, non-reducing
[5] = target: T4, Canine/Human IL4R-ECD_C-HuFc_His6 Hybrid 6 (canine/human hybrid); experiment: Western blot, non-reducing
T4 construct: Canine G1-N55 and P110-P204; human N56-H109

[6] = target: Human IL4R-ECD_C-HuFc_His6 (processed) (human); experiment: Western blot, non-reducing
[7] = target: Murine IL4R-ECD_C-HuFc_His6 (processed) (murine); experiment: Western blot, non-reducing
[8] = target: T5, Canine/Human IL4R-ECD_C-HuFc_His6 Hybrid 1 (canine/human hybrid); experiment: Western blot, non-reducing
T5 construct: Canine G1-N55, human N56-H209, human Fc-His6; Tested as 3-fold concentrated 293 supernatant

[9] = target: T6, Canine/Human IL4R-ECD_C-HuFc_His6 Hybrid 13 (canine/human hybrid); experiment: Western blot, non-reducing
T6 construct: Canine G1-S89 and P110-P204; human G90-H109

[10] = target: Feline IL4R-ECD_C-HuFc_His6 (processed) (feline); experiment: BLI (Octet), biotinylated feline IL4R-ECD_C-HuFc_His6 on streptavidin tips, antibody 25 µg/mL, 1:1 fit
Experimental: This finding was consistent with in vitro binding affinity measured by Octet Biosensor. Biotinylated feline IL4R-ECD_C-HuFc_His6 (SEQ ID NO: 111) was captured on streptavidin sensor tips. The association of Clone I antibody (25 μg/mL) and feline IL4R-ECD_C-HuFc_His6 was monitored for 600 seconds. Dissociation was monitored for 600 seconds. A buffer only blank curve was subtracted to correct for any drift. The data were fit to a 1:1 binding model using ForteBio™ data analysis software to determine the kₒₙ, koff, and the Kd. The buffer for dilutions and all binding steps was 20 mM phosphate, 150 mM NaCl, pH 7.2.

[11] = target: Human IL4R-ECD_C-HuFc_His6 (processed) (human); experiment: Western blot
[12] = target: T3, Canine IL4R-ECD_C-HuFc_His6 (processed); experiment: Western blot
[13] = target: T1, canine IL4R (Examples 16, 18 and 19; …); experiment: BLI (ForteBio OctetRed), biotinylated canine IL4R on streptavidin tip
[14] = target: T1, canine IL4R (Examples 16, 18 and 19; …); experiment: BLI (ForteBio OctetRed)

Sequence of Human IL4R-ECD_C-HuFc_His6 (processed) (human) (chain, as listed by the source limits assumed): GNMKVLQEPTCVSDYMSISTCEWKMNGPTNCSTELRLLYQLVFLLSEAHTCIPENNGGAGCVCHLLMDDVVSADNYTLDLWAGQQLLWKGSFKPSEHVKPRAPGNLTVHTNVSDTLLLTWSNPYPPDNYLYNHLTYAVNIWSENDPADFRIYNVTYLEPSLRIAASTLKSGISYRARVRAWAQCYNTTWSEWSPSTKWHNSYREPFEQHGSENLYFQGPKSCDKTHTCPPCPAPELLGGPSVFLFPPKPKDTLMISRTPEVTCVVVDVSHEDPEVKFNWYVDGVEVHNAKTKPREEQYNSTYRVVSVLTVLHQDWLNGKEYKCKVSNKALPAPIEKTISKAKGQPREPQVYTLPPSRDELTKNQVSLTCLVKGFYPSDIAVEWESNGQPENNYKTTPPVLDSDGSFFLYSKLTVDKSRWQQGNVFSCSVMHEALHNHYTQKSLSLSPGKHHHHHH
T4 sequence (chain, as listed by the source limits assumed): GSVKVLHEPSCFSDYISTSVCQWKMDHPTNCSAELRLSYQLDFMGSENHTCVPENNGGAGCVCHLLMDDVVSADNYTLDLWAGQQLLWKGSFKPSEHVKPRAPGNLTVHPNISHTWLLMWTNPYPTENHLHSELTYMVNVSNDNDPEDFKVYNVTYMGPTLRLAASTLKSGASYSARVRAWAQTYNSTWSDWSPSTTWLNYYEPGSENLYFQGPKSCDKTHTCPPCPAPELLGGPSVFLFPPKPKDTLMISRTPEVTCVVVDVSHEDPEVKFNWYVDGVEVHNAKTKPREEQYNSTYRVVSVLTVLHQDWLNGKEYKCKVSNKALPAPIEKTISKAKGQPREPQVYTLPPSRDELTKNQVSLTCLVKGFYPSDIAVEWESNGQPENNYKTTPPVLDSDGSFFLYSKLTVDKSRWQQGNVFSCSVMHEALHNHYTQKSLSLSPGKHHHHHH
Sequence of Murine IL4R-ECD_C-HuFc_His6 (processed) (murine) (chain, as listed by the source limits assumed): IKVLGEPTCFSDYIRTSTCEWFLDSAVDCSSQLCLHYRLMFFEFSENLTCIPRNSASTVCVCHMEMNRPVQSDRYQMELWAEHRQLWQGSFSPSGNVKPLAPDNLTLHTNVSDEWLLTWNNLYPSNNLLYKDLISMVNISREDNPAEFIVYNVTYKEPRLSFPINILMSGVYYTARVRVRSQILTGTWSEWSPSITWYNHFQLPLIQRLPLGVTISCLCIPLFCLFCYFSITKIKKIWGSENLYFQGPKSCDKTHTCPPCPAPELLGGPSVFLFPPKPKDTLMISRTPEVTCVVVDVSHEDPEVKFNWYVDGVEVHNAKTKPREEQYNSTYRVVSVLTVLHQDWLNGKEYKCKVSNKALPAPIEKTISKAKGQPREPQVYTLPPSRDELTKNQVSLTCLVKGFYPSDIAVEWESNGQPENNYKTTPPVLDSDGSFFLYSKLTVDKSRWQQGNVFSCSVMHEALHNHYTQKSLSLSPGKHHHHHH
Sequence of Feline IL4R-ECD_C-HuFc_His6 (processed) (feline) (chain, as listed by the source limits assumed): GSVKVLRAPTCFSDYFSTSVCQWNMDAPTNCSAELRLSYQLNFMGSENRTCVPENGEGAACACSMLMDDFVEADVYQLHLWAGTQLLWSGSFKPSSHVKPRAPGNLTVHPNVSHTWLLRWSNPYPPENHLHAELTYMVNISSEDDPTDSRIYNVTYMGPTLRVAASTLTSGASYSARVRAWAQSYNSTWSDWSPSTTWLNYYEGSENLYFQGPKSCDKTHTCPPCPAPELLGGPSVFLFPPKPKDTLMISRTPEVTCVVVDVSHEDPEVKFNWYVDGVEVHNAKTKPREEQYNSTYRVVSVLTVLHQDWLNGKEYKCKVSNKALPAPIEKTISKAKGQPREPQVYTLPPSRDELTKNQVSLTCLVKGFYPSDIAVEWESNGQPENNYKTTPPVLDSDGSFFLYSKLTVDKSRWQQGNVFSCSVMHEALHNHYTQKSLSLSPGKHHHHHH
Sequence of Equine IL4R-ECD_C-HuFc_His6 (processed) (equine) (chain, as listed by the source limits assumed): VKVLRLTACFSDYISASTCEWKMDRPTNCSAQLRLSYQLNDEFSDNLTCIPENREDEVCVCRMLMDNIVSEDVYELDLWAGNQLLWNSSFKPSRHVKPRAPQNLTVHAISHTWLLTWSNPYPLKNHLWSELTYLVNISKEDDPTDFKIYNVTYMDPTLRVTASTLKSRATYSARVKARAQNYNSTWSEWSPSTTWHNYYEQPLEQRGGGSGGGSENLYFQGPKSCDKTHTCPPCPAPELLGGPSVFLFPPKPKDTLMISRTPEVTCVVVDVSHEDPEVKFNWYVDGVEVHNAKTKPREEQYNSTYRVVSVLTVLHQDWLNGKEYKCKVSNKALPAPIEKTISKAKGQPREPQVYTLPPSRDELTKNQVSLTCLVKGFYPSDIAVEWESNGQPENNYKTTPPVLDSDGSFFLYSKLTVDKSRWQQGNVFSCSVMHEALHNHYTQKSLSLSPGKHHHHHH
T6 sequence (chain, as listed by the source limits assumed): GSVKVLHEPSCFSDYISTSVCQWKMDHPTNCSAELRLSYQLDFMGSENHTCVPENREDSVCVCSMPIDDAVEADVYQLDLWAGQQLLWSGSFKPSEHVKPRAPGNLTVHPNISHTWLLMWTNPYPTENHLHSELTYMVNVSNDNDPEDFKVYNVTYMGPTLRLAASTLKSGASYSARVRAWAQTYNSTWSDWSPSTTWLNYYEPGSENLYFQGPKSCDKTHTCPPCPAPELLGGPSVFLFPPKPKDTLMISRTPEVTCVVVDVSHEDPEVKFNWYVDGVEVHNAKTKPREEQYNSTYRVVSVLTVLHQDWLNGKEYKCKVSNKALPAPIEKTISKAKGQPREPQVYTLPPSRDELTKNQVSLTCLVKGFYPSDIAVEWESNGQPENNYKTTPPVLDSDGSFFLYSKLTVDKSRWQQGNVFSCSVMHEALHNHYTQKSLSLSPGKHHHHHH
T5 sequence (chain, as listed by the source limits assumed): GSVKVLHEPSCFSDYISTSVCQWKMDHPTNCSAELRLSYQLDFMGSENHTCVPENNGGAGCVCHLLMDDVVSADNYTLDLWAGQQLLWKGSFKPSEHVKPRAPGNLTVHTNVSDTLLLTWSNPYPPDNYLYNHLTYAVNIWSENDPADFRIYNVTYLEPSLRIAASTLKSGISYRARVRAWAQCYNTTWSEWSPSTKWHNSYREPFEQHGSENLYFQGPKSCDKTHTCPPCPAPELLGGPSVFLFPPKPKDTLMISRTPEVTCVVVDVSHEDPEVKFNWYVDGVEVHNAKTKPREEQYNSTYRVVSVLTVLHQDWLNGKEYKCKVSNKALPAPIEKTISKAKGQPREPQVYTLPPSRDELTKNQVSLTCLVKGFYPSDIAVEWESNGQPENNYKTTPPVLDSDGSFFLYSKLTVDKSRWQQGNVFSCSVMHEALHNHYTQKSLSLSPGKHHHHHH

B1: caninized M9 antibody, variable HC v1 with variant canine IgG-B (C1q-, CD16-) and variable LC v1 with canine kappa (antibody, V domains shown)
VH: EVQLVESGGDLVKPGGSLRLSCAASGFTFSSFGMHWVRQAPGKGLEWVAYIRSDSSTIYYADAVKGRFTISRDNAKNTLYLQMNSLRAEDTAMYYCARSGYYGSFSLTYWGQGTLVTVSS
VL: DIMLTQTPLSLSVSPGEPASISCSASSSVSSNYLHWYLQKAGQSPRLLIYRTSNLPSGVPDRFSGSGSGTDFTLRIGRVEAEDAGIYYCQQGSGMLTFGQGTRLEVRR
notes: also called caninized M9 HC v1 / LC v1
[1]
  Kd: ≤ 1 nM

B2: caninized M9 antibody, variable HC v2 with variant canine IgG-B (C1q-, CD16-) and variable LC v1 with canine kappa (antibody, V domains shown)
VH: B1 VH with A23V, E46Q
VL: B1 VL
notes: also called caninized M9 HC v2 / LC v1
[1]
  Kd: ≤ 1 nM

B3: Clone B mouse monoclonal antibody (antibody, mouse IgG1, kappa, V domains shown)
VH: EVKLEESGPELVKPGASVKMSCKASGYTFTSYVMHWVKQKPGQGLEWIGYINPKNDGTFYNGKFKGKATLTSDKSSSTAYMELSSLTSEDSAVYYCAAFNYGIAYWGQGTLVTVSS
VL: IVLTQTPSSLSASLGERVSLTCRASQEISGYLSWLQQKPDGTIKRLIYAASTLDSGVPKRFSGSRSGSDFSLTISSLESEDFADYYCVQYASYPWTFGGGARLEIKR
notes: also called Clone B antibody; anti-IL4R-mAb Clone B
[2]
  Kd: 2.03 nM
[3]
  Kd: ~0.1 nM

B4: Clone I mouse monoclonal antibody (antibody, mouse IgG1, kappa, V domains shown)
VH: B3 VH with K3Q, E5Q, E6Q, K54N, N100Y, I103F, S116A
VL: DIVLTQSPSSLSASLGERVSLTCRASQEISGYLSWLQQKPDGTIKRLIYAASTLDSGVPKRFSGSRSGSDFSLTISSLESEDFADYYCLQYASYPWTFGGGAKLEIKR
notes: also called Clone I antibody; anti-IL4R-mAb Clone I
[4]
  binding result: no binding (tested: Clone I 0.3 µg/mL; 0.1 µg/lane)
[5]
  binding result: binds
[6]
  binding result: no binding (tested: Clone I 0.3 µg/mL; 0.1 µg/lane)
[7]
  binding result: no binding (tested: Clone I 0.3 µg/mL; 0.1 µg/lane)
[8]
  binding result: binds
[9]
  binding result: binds
[10]
  Kd: 1.1 nM

B5: M8 mouse monoclonal antibody (antibody, V domains shown)
VH: QVQLQQSGPELVKPGALVKISCKASGYTFTSYDINWVKQRPGQGLEWIGWIYPGDGSTKYNEKFKGKATLTADKSSSTAYMQLSSLTSEDSAVYFCARSSFVVWGAGTTVTVSS
VL: DIQMTQSSSYLSVSLGGRVTITCKASDPINNWLAWYQQKPGNAPRLLISGATSLETGVPSRISGSGSGKDYSLSITSLQTEDIATYYCHQYWSIPYTFGGGTKLEIK
notes: Mouse antibody purified from hybridoma culture; also called Clone M8
[11]
  binding result: no binding
[12]
  binding result: binds
[13]
  Kd: < 10 nM

B6: murine-canine chimeric M8 antibody (canine IgG-B, canine kappa) (antibody, V domains shown)
VH: B5 VH
VL: B5 VL
notes: also called chimeric canine IgG-B (M8)
[14]
  Kd: < 10 nM

B7: M3 mouse monoclonal antibody (antibody, V domains shown)
VH: QVQLKESGPGLVAPSQSLSITCTVSGFSLSRYSVHWVRQPPGKGLEWLGMIWGGGSTDYNSVFKSRLSISKDNSKSQVFLKMNSLQTDDTAMYYCARTYRGYALDYWGQGTSVTVSS
VL: DIQMTQTTSSLSASLGDRVTISCRASQDISNYLNWYQQKPDGTVKLLIYYTSRLQSGVPSRFSGSGSGTDYCLTISNLEQEDIATYFCQQANTLPLTFGSGTKLELK
notes: Mouse antibody purified from hybridoma culture; also called Clone M3
[11]
  binding result: no binding
[12]
  binding result: binds
[13]
  Kd: < 10 nM

B8: murine-canine chimeric M5 antibody (canine IgG-B, canine kappa) (antibody, V domains shown)
VH: B7 VH
VL: B7 VL
notes: also called chimeric canine IgG-B (M5)
[14]
  Kd: < 10 nM

B9: M5 mouse monoclonal antibody (antibody, V domains shown)
VH: B7 VH
VL: B7 VL
notes: Mouse antibody purified from hybridoma culture; also called Clone M5
[13]
  Kd: < 10 nM

B10: murine-canine chimeric M3 antibody (canine IgG-B, canine kappa) (antibody, V domains shown)
VH: B7 VH
VL: B7 VL
notes: also called chimeric canine IgG-B (M3)
[14]
  Kd: < 10 nM

B11: caninized M3 antibody, variable HC v1 with variant canine IgG-B (C1q-, CD16-) and variable LC v1 with canine kappa (antibody, V domains shown)
VH: EVQLVESGGDLVKPAGSLRLSCTVSGFSLSRYSVHWVRQAPGKGLEWLGMIWGGGSTDYNSVVKGRFTISRDNAKNTVYLQMNSLRAEDTAMYYCARTYRGYALDYWGQGTLVTVSS
VL: DIVMTQTPLSLSVSPGEPASISCRASQDISNYLNWYLQKAGQSPRLLIYYTSRLQSGVPDRFSGSGSGTDFTLRIGRVEAEDAGIYFCQQANTLPLTFGQGTRLEVRR
notes: also called caninized M3 HC v1 / LC v1
[1]
  Kd: ≤ 1 nM

B12: caninized M3 antibody, variable HC v2 with variant canine IgG-B (C1q-, CD16-) and variable LC v1 with canine kappa (antibody, V domains shown)
VH: ELTLQESGPGLVKPSQTLSLTCTVSGFSLSRYSVHWIRQPRGRGLELLGMIWGGGSTDYNPAFQGRISITADTAKNQFSLQLSSMTTEDTAVYYCARTYRGYALDYWGQGTLVTVSS
VL: B11 VL
notes: also called caninized M3 HC v2 / LC v1
[1]
  Kd: ≤ 1 nM

B13: M9 mouse monoclonal antibody (antibody, V domains shown)
VH: DVQLVESGGGLVQPGGSRKLSCAASGFTFSSFGMHWVRQAPEKGLEWVAYIRSDSSTIYYADTVKGRFTISRDNPKNTLFLQMTSLRSEDTAMYYCARSGYYGSFSLTYWGQGTLVTVSA
VL: EIVLTQSPTTMAASPGEKITITCSASSSVSSNYLHWYQQKPGFSPKLLIYRTSNLPSGVPARFFGSGSGTSYSLTIGTMEAEDVATYYCQQGSGMLTFGAGTKLELK
notes: Mouse antibody purified from hybridoma culture; also called Clone M9
[11]
  binding result: no binding
[12]
  binding result: binds
[13]
  Kd: < 10 nM

B14: murine-canine chimeric M9 antibody (canine IgG-B, canine kappa) (antibody, V domains shown)
VH: B13 VH
VL: B13 VL
notes: also called chimeric canine IgG-B (M9)
[14]
  Kd: < 10 nM
